The assay concerns the target T1, endogenously expressed σ1R of mouse brain cortex (mouse (endogenous in brain cortex)), O55242.
T1 chain: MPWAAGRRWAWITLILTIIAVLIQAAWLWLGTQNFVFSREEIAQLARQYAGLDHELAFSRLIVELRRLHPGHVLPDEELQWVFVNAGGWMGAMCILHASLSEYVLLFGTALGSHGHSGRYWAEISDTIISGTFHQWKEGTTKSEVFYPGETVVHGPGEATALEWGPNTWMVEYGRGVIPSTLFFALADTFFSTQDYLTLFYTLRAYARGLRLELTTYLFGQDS
As to the kind of experiment: SDS-PAGE western blot without heat denaturation; mouse brain cortex homogenised in lysis buffer, samples kept on ice, same protocol as for the transfected cells. The conditions noted are these: remark: other sources report otherwise. A general note: A western blot detects proteins with antibodies after separation by electrophoresis.

Values joined by “and” are separate entries in the source; they are usually repeats but may differ in a detail not shown here. Equal entries are not always repeated.

The term stoichiometry N denotes the number of molecules, sites or subunits per partner or assembly.

B1: endogenously expressed σ1R of mouse brain cortex, O55242 1-223 (receptor)
chain: T1 chain
As for B1, the stoichiometry N is 2 and 4.

For the origin of these results see article PMC6930887.
